Experimental data reported in the DeepSol protein solubility set.

Experiment: soluble on expression in E. coli; label from the status in PepcDB or PDB records

Row | Sequence | soluble on expression in E. coli
1 | MDQLEHLSLVSKVLSEVENHFGVVEKDVAEFVIHLAQENPTFDKLKKALDSQGLGDQFDDSLTATILRIVQSMTAVKKKNKKGGDSKEDIKDSHKITLISDAKEEIKARLPALAMANTAKEKEDNEDDLMAQLEKMEGRYESEKRLQKESDSKRNRSRSRSRSRDRKRRRSRSGDRDRRRRSRSREDRRDRDRRDRDRDRDRGRGDRRGDDRQRDRRDRRDDGGARKSEVAEIGKIYDGRVNSIQSFGAFITLEGFRQKQEGLVHISQIRNERVQTVADVLKRGENVKVKVNKIENGKISLSMKEVDQNSGEDLNPRETDLNPDAIGVRPRTPPASTSSWMNPEASGVGQGPSTSIGGGKARVRISTPERWELRQMQGAGVLTATDMPDFDEEMGVLRNYDDESDGEDIEIELVEDEPDFLRGYGKGGAEIEPVKVVKNPDGSLAQAALMQGALSKERKETKIQAQRERDMDTQKGFSSNARILDPMSGNQSTAWSADESKDRNNKMKEMPEWLKHVTAGGKATYGRRTNLSMVEQRESLPIFALKKNLMEAMIDNQILVVVGETGSGKTTQMTQYAIEAGLGRRGKIGCTQPRRVAAMSVAKRVAEEYGCKLGTDVGYTIRFEDCTSQDTIIKYMTDGMLLRECLIDPDLSGYSLIMLDEAHERTIHTDVLFGLLKAAARKRPELKLIITSATLDSVKFSEYFLEAPIFTIPGRTFPVEILYTREPESDYLEAAHITVMQIHLTEPPGDVLVFLTGQEEIDTSCEVLYERMKSMGPDVPELIILPVYGALPSEMQTRIFDPAPAGKRKVVIATNIAETSLTIDGIFYVVDPGFVKQKIYNPKSGMDSLVVTPISQAAAKQRSGRAGRTGPGKCYRLYTERAFRDEMLPTPVPEIQRTNLASTLLQLKAMGINNLIDFDFMDAPPLDSMITALNTLHTLSALDGDGLLTKLGRRMAEFPLEPSLSKLLIMSVDLGCSEEVLTIVAMLNVQNIFYRPKEKQDHADQKKAKFHQPEGDHLTLLAVYNSWKNHHFSQPWCFENFIQVRSMKRAQDIRKQLLGIMDRHKLLMVSCGRDVSRVQKAICSGFFRNAAKRDPQEGYRTLTDGQNVYIHPSSACFQQQPEWVVYHELVMTTKEYMREVTAIDPKWLVEFAPSFFKIGDSTKLSTFKRNQKIDPLFDKYADANAWRITRVKKRIYNPNK | soluble
2 | MSTEYGCQVTNKFGLPSDDDDEYDDPRELIQKVSQIAAKKKEEKSVKPAQPVKPAAAPVAATKTDGAAGRGRGGRGRGRGGAGRPRDGERVSNENGDRPQGENRRGGPRRGGERGAARPAGRGGRGGFTRENREGEEPKQEVSFEDGQDTRAPRRRGGFTLGGGPSGGRGGGRGGRGRQFDRQSGSDRTGVRSFDKKDGHGKGNWGDQKDELAGETENIAPEGAESTEPEVPREKTAEELAYEAELAVLAKQKTLKEFKAAAKADAPKFNTRKAGEGAADTFGKLVPIKKEVIPDREEDEVVVIHKAPRKQVLDISITFRNDRPERERNDRSERPQRGGPRGGGRGGGRGGQRQGGHGGRNNTPFNASDDAFPALGAK | not soluble
3 | YFQSMEAEDFECSSHCSELSWRQNEQRRQGLFCDITLCFGGAGGREFRAHRSVLAAATEYFTPLLSGQFSESRSGRVEMRKWSSEPGPEPDTVEAVIEYMYTGRIRVSTGSVHEVLELADRFLLIRLKEFCGEFLKKKLHLSNCVAIHSLAHMYTLSQLALKAADMIRRNFHKVIQDEEFYTLPFHLIRDWLSDLEITVDSEEVLFETVLKWVQRNAEERERYFEELFKLLRLSQMKPTYLTRHVKPERLVANNEVCVKLVADAVERHALRAENIQSGT | soluble
4 | GMTRSEAQGRLTGLAPVSVIDIGSNSVRLVVYEGLSRAPAVLFNEKVLCGLGKGLALTGRMHEEGVTRALMALRRFHVLSEQAQAQKLYVLATAAAREAENGPDFIREAEAILGCEIEVLSGEKEALYSAYGVISGFYQPDGIAGDLGGGSLELIDIKDKSCGEGITLPLGGLRLSEQSDGSLEKAATIARKHVKSFAKLLAAGEGRTFYAVGGTWRNIAKLHMEISGYPLHMMQGYELPLEEMLNFLEEVIVSRDSKDPAWQAVSKNRRSLLPFGAIAMREVLRAMKPAKIAFSAQGVREGYLYSLLTEAERESDPLLVAADELAILRARSPEHARELADWSGRTFPVFGIDETEEESRYRQAACLLADISWRAHPDYRGLQALNIIAHSSFVAITHPGRAYIALANYYRFEGLNDNGTTEPLAAMAGERLQELGKLLGGLLRVVYLFSASMPGVVDHLKFRKSDNPDIDLEFVVPHDYCDFAGERLDGRLQQLAKLTGKRLAFVFE | soluble
5 | YLGGDLKYYGHTIKKANVQAIINYAVQYNILPSGIITQLYLESFWGDSTVGKRDNNWAGMSGGAQTRPSGVKVTTGMARPANEGGTYMHYASVDDFLKDYTYLLAKQGIYNVVGKKNIADYTKGLFRAGGAKYDYAAAGY | not soluble
6 | MGSDKIHHHHHHMVAQIQELEAQHWVKTRSSLDPNESTFLIWKGKIYAFIPGEKRQLLFKILGLSVSRCIPTAEGSWDFTSRELTYYLNPKTDEILRKWENPWTSETVPVIHVANNPVQGKFEGNFPAQVDGDSTTFVFDIFPYYPNPLADDPKFAEYSPNPIYQAAELFKLTVPTADLFNSALPSVSELKLSWDRIGQWLPWMKMGDRPGQLIYSAVGSKVNGLTELPPLLQDEINNRIPLYKQAPKALIDGEDMTSWLYFQKHFPAYLAGEIFPLPQAEEL | not soluble
7 | MARLIVNALVSVPLAEIEIGFVRSGGAGGQNVNKLATAAHLRFDIAASSLPETCKTRLLDHRDRRMTAEGIIVIKAQRFGTQEKNREDALARLRGLILQALAQRRPRKPTRPTLAAKKKRLDEKTRHGEIKRLRRRIGDLEHHHHHH | not soluble
8 | MGSDKIHHHHHHMSQDDHSRDSAGLTYVYPVVSRRAGGVSIGINLNPNNACNWRCIYCQVPDLKRGTAPVIDLVRLEQELRDFLHELVYGNFMQEKVPPETRVIKDIALSGNGEPTSAREFEQIIEIIGRVKADFPLPEELKLVLITNGSLINRMYVQKGLHLMAGLNGEVWFKLDSVTQTGRLRINNTRASLQRMRDNLQTAASLCPTWLQTCVFKLKGVHPDTHETDAYIGFIRTLLQEGTQIRGVLLYTLARPALQPEAPDLSKADPDWIKTFADKIRALGIPVRTAF | not soluble
9 | MGSIIFLEDRAFQGRIYGCTTDCPNLQPYFSRCNSIVVQSGCWMIYERPNYQGHQYFLRRGEYPDYQQWMGLSDSIRSCCLIPPHSGAYRMKIYDRDELRGQMSELTDDCLSVQDRFHLTEIHSLNVLEGSWILYEMPNYRGRQYLLRPGEYRRFLDWGAPNAKVGSLRRVMDLYLEHHHHHH | soluble
10 | MAHHHHHHMLKELNLNTTFLRQDYRTPLKQLSVDPIFCRRRGGRAILHFEMNQVQGTVAVTLTGCVAQACVPHACGAGWGNMKVEQLRSFFLSFVVVADAAQPSYFLWGEVSVHEMNGTAGNHLAIDGQSLRTCTTASVIPPLSEIPPEVFIVKAKKFRCQMHEKGFGDSTTCP | not soluble
11 | MKKTHINVIGAGLAGSEAAYQIAKRGIPVKLYEMRGVKQTPQHKTDKFAELVCSNSLRGAAITNAVGLLKEEMRRLDSVIIKAAEVTQVPAGGALAVDREGFSDFVTREVSNHPLVEVIREEITDLPEDEITIIATGPLTSDKLAEKIHEFNGADGFYFYDAAAPIIDANSINFDKVYKKSRYDKGEADYINCPMTKEEFQAFQEALISAEEAPLNSFEDLKVFEGCMPIEEMAKRGYKTMLFGPMKPVGLEYPEDYKGPRDGDFKTPYAVVQLRQDNASASLYNIVGFQTHLKWGEQKRVFQMIPGLENAEFVRYGVMHRNSYMDSPNLLKQTFQSRKQENLFFAGQMTGVEGYVESAASGLVAGINAVKLFNDEEVVIFPKTTAIGSLPYYITHTDSKHFQPMNVTFGIVEELEGPRIRDKKERYTKVAERALNSLTDIISKDNLLEHHHHHH | soluble
12 | AIAMWQDQPMPSMDLVKNAFWNYVSQATLTAEETLQMIRNSELGQEINDRISKSTDAINKYTLAIQSQVTPLTQELLTKLSKEADQLKLSLEQEITSAQTQLKPYVEELKVDIEEQIERLKKDVAPYAEALNPEAMRLTLVQRAEELKAKLETSLMAMGPQSEELKQKLEQHFVEFQMSMSPLAESFQSQLAQRSQELQKNLAPYSEELSKLDPLAQDLKDQLTALWESFAKDKQS | soluble
